Key:
[1] = biological target: T1, CD228 on A375 and A2058 cells (human, UniProt P08582 20-709); assay: flow cytometry saturation binding on A2058 cells (~40K receptors), neutral pH
T1 construct: whole, on cells; GPI-anchored cell surface protein; also called CD228 on A375 cells; CD228 on A2058 cells
T1 sequence (looked up): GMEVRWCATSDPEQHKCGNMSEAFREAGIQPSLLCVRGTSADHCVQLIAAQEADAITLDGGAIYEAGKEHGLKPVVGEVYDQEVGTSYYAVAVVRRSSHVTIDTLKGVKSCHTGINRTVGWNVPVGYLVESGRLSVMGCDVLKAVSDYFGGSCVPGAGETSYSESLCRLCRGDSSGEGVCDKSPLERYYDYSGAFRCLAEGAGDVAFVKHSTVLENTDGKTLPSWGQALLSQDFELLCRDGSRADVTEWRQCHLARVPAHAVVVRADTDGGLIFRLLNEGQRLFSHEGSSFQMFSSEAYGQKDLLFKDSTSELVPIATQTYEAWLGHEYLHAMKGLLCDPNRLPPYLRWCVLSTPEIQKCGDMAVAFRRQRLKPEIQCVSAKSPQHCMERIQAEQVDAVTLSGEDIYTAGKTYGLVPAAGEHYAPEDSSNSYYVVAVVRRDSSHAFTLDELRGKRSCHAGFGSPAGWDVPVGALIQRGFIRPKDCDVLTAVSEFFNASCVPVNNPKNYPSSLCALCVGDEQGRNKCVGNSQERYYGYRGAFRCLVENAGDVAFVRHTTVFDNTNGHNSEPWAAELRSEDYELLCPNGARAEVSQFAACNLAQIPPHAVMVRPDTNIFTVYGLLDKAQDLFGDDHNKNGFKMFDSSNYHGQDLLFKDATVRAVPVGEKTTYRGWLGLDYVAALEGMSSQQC
Method: (§1) The ability of various anti-CD228 antibodies to bind to CD228 on A375 cells, A2058 cells, and CD228 protein was evaluated at neutral pH using a saturation binding assay. Briefly, 1×10⁵ A2058 or A375 cells that have either 40,000 or 18,000 copies of CD228 respectively, were aliquoted per well of a 96-well v-bottom plates. Each CD228 antibody was added in concentrations ranging from 0.66 pM to 690 nM and incubated on ice for 60 minutes. Cells were pelleted and washed 3× with PBS/BSA followed by addition of 10 μg/ml of a PE labeled anti-human IgG goat secondary antibody and incubated on ice for an additional 60 minutes. Cells were pelleted and washed 3× with PBS/BSA and resuspended in 125 μL of PBS/BSA. Fluorescence was analyzed by flow cytometry, using percent of saturated fluorescent signal to determine percent bound and to subsequently calculate apparent KID. […] The histidine 34 variants show large differences for substitutions with alanine, glutamine, and tyrosine.

[2] = biological target: T2, human CD228 (R&D Systems Custom02; Lot DCWR021505A) (human, UniProt P08582 20-709, limits assumed); assay: ELISA, coated human CD228, pH 4.55
T2 construct: Bought custom protein coated on ELISA plates; also called CD228 protein; melanotransferrin
T2 sequence (looked up): T1 sequence (looked up)
Method: (§2) Briefly, 100 ng of human CD228 (R&D Systems Custom02; Lot DCWR021505A) or BSA (Sigma; Catalog No. A7030-100G) were diluted in PBS and added to each well overnight at 4° C. Plates were then washed three times with PBS-T (EMD Millipore; Catalog No. 5246531EA). After washing, plates were blocked with 3% (w/v) BSA in PBS-T for 1 hour at room temperature. Excess blocking buffer was then removed and the primary antibody was added in 3-fold dilutions in diluent buffer (0.15M citrate-phosphate buffer pH 4.0-7.5) starting at an antibody concentration of 60 nM. After incubating for 1 hour at room temperature, the plates were washed 3 times and then incubated with secondary antibody (Goat anti-human IgG Fc-specific HRP-conjugated, Jackson ImmunoResearch code #109-035-098) in PBS-T with 1% BSA. After incubating for 30 minutes at room temperature, plates were washed 3 times. 100 μl TMB substrate (Life Technologies-, Cat #002023) was then added to each well. After incubating 10 minutes at room temperature, 100 μl H₂SO₄ was added to each well to stop the reaction, plates were covered with clear plate seal and read on an Envision at […]. pH-dependent binding for hL49 and nine variants with histidine substituted to alanine, glutamine, or tyrosine in the light chain CDRs are shown in FIG. 1A-1I. […] The triple mutants have lower affinity overall compared to hL49.

[3] = biological target: T2, human CD228 (R&D Systems Custom02; Lot …); assay: ELISA, coated human CD228, pH 7.40
Method: as §2

[4] = biological target: T2, human CD228 (R&D Systems Custom02; Lot …); assay: ELISA, coated human CD228, pH 5.60
Method: as §2

[5] = biological target: T2, human CD228 (R&D Systems Custom02; Lot …); assay: ELISA on CD228 protein, neutral pH (rounded form of Table 2, pH 7.40)
[6] = biological target: T2, human CD228 (R&D Systems Custom02; Lot …); assay: ELISA, coated human CD228, pH 6.30
Method: as §2

[7] = biological target: T1, CD228 on A375 and A2058 cells; assay: flow cytometry saturation binding on A375 cells (~18K receptors), neutral pH
Method: as §1

EC50 [1]: 0.7 nM
EC50 [2]: 335 nM
EC50 [3]: 0.72 nM
EC50 [4]: 5.16 nM
EC50 [5]: 0.7 nM
EC50 [6]: 0.96 nM
EC50 [7]: 1.1 nM
B1: hL49_27D_Tyr (antibody, V domains shown)
VH: QVQLQESGPGLVKPSETLSLTCTVSGDSITSGYWNWIRQPPGKGLEYIGYISDSGITYYNPSLKSRVTISRDTSKNQYSLKLSSVTAADTAVYYCARRTLATYYAMDYWGQGTLVTVSS
VL: DFVMTQSPLSLPVTLGQPASISCRASQSLVYSDGNTYLHWYQQRPGQSPRLLIYRVSNRFSGVPDRFSGSGSGTDFTLKISRVEAEDVGVYYCSQSTHVPPTFGQGTKLEIK
notes: hL49 variant with the light chain CDR-L1 histidine 27D changed to tyrosine

Reference: patent US20230295330A1 (Seagen, published 2023)
